Results from patent US20150007357A1, “Use Of Humanized Mice To Determine Toxicity” (Massachusetts Institute Of Technology, priority 2011, published 2015).
“Also recorded” adds a separate entry of the source.

Experiments:
[1] = tested on: PBMCs; settings: incubated in aqueous phase; previous study; cited from earlier work
[2] = tested on: cytokine-treated humanized mice (NSG engrafted with human HSCs, human IL-15 and Flt-3L plasmids); test: Serum human cytokine release after mAb injection in IL-15/Flt-3L cytokine-treated humanized mice; assay type: in vivo, mouse; settings: for change in serum levels of human cytokines: vs saline control or baseline; for serum levels of human cytokines at 24 hours: 24 hours post-injection
Procedure: NSG mice were purchased from the Jackson Laboratories and maintained under specific pathogen-free conditions in the animal facilities at Nanyang Technological University and National University of Singapore. To reconstitute mice, newborn pups (less than 48 hours old) were irradiated with 100 cGy using a Gamma radiation source and injected intracardially with CD34+CD133+ cells ([…] cells/recipient). Human IL-15 and human Fltr-3 ligand were cloned separately into pcDNA3.1(+) vector (Invitrogen, USA) as described previously (Chen Q et al. (2009) Proc Natl Acad Sci, USA, 106:21783-21788). For hydrodynamic gene delivery, 12 week-old humice were injected with 50 μg of each plasmid in a total of 2 ml saline within 7 seconds using a 27 gauge needle. All research with human samples and mice was performed in compliance with the institutional guidelines.
(§1) The blood sampling at seven days post-cytokines treatment was used as the time point (−48 hours) for setting the baseline of the production levels of different cytokines and human cells absolute numbers and percentages. […] Blood samples were collected 2 and 24 hours after the mAb treatment, and all injected animals were euthanized at 24 hours.
(§2) Single cell suspensions were prepared from spleen by standard procedures. […] Cells were stained with appropriate antibodies in 100 μl PBS containing 0.2% BSA and 0.05% sodium azide for 30 min on ice. Flow cytometry was performed on a LSRII flow cytometer using the FACSDiva software (BD, Franklin Lakes, N.J.), and samples were analyzed using the Flowjo software. For cytokine detection, the concentration of human IL-2, IL-4, IL-6, IL-8, IL-1β, TNF-α, and IFN-γ were determined in sera using a BD Cytometric Bead Array (CBA) (BD Biosciences, USA). The experiments were conducted according to the manufacturer's recommendation and results were analyzed with the FCAP array software (Soft Flow Hungary, BD Biosciences).
NSG mice were purchased from the Jackson Laboratories and maintained under specific pathogen-free conditions in the animal facilities at Nanyang Technological University and National University of Singapore. To reconstitute mice, newborn pups (less than 48 hours old) were irradiated with 100 cGy using a Gamma radiation source and injected intracardially with CD34+CD133+ cells (1×10^5 cells/recipient). Human IL-15 and human Fltr-3 ligand were cloned separately into pcDNA3.1(+) vector (Invitrogen, USA) as described previously. For hydrodynamic gene delivery, 12 week-old humice were injected with 50 μg of each plasmid in a total of 2 ml saline within 7 seconds using a 27 gauge needle. All research with human samples and mice was performed in compliance with the institutional guidelines.
as §2, with “procedures. The following human conjugated antibodies were used for flow cytometry staining.” for “procedures.”, “IL-2,” for “IL-2, IL-4,”, “TNF-α, IFN-γ” for “TNF-α,”, “mouse IL-2, IL-6, IL-8” for “IFN-γ”

[3] = tested on: human T, B, NK cells and monocytes in cytokine-treated humanized mice; test: Immunophenotyping of human cell lineages in peripheral blood (flow cytometry) of cytokine-treated humanized mice; assay type: in vivo, mouse
Procedure: as §1
as §2, with “procedures. The following human conjugated antibodies were used for flow cytometry staining.” for “procedures.”, “IL-2,” for “IL-2, IL-4,”, “TNF-α, IFN-γ” for “TNF-α,”, “mouse IL-2, IL-6, IL-8” for “IFN-γ”

[4] = tested on: cytokine-treated humanized mice; test: Liver enzymes (AST, ALT) in cytokine-treated humanized mice; assay type: in vivo, mouse; settings: 24 hours post-treatment
Procedure: as §1

[5] = tested on: cytokine-treated humanized mice; test: Serum mouse cytokines (mIL-2, mIFN-γ, mIL-6) in cytokine-treated humanized mice; assay type: in vivo; settings: mice treated with IL-15 and FLT3L or M-CSF plasmid
Procedure: (§3) Single cell suspensions were prepared from spleen by standard procedures. The following human conjugated antibodies were used for flow cytometry staining. CD3, CD4, CD8, CD19, CD28, CD45, CD45RO, CCR7 from Biolegend; CD14 and CD56 from BD Biosciences (BD Biosciences, USA) and mouse CD45.1 from eBioscience. Cells were stained with appropriate antibodies in 100 μl PBS containing 0.2% BSA and 0.05% sodium azide for 30 min on ice. Flow cytometry was performed on a LSRII flow cytometer using the FACSDiva software (BD, Franklin Lakes, N.J.), and samples were analyzed using the Flowjo software. For cytokine detection, the concentration of human IL-2, IL-6, IL-8, IL-1β, TNF-α, IFN-γ and mouse IL-2, IL-6, IL-8 were determined in sera using a BD Cytometric Bead Array (CBA) (BD Biosciences, USA). The experiments were conducted according to the manufacturer's recommendation and results were analyzed with the FCAP array software (Soft Flow Hungary, BD Biosciences).

[6] = tested on: humanized mice treated with M-CSF human cytokine plasmid; test: Serum human cytokine release in humanized mice treated with human M-CSF plasmid; assay type: in vivo, mouse; settings: 2 hours post-injection
Procedure: as §1
as §3, with “Biosciences). […]” for “Biosciences).”

[7] = 2 hours post-injection, 1 mg/kg i.v.
[8] = IL-15 and Flt-3L treated mice, 2 hours post-injection, 1 mg/kg i.v.
[9] = 2 and 24 hrs post-injection, 1 mg/kg

Substance | IL-2 response of PBMCs [1] [pg/mL] | IL-6 response of PBMCs [1] [pg/mL] | IL-8 response of PBMCs [1] [pg/mL] | change in serum levels of human cytokines [2, 7] | serum levels of human cytokines at 24 hours ([2]; 1 mg/kg i.v.) | serum levels of human IL-2 ([2]; IL-15 and Flt-3L treated mice, 2 hours post-injection, 1 mg/kg) [ng/mL] | serum levels of human IL-6 [2, 8] [ng/mL] | serum levels of human IL-8 [2, 8] [ng/mL] | B cell numbers in peripheral blood [3, 9] | NK cell numbers in peripheral blood [3, 9] | T cell numbers in peripheral blood [3, 9] | monocyte numbers in peripheral blood [3, 9] | Aspartate aminotransferase (AST) level [4] | mouse IL-6 (mIL-6) in sera [5] | serum levels of human IL-6 [6] [ng/mL] | serum levels of human IL-8 [6] [ng/mL] | reduction of the CD14+ cells ([3]; 2 hours post-injection) [fold] | mouse mIL-2 and mIFN-γ in sera [5]
Alemtuzumab: humanized anti-CD52 antibody for treating chronic lymphocytic leukemia (Campath, Genzyme) | 14.0 | 88 | 6050 | increase in the serum levels of IL-2, IL-6, IL-8 and IL-1β | most cytokines, except IL-1β, had returned to the baseline level | 0.0316 | 0.0192 | 0.2241 | complete depletion | complete depletion | complete depletion | complete depletion; also recorded: only residual monocytes cell remaining at 24 hrs | did not induce a significatively increase | increase | – | – | – | –
OKT3: mouse mAb against human CD3 for suppressing renal allograft rejection (Biolegend) | – | – | – | significant increase in the circulating levels of IL-2, IL-6, IL-8 and IFN-γ | IL-2 expression was diminished 24-hours post injection, the other cytokines remained elevated | – | 0.1318 | – | – | transient decrease | complete depletion | – | did not induce a significatively increase | increase; also recorded: slightly increase | 1.5128 | 0.7226 | 4 | not
